Laboratory results taken from patent US20050238642A1, “Modified bouganin proteins, cytotoxins and methods and uses thereof” (priority 2004, published 2005).

Tests used:
Assay in all cases: Flow cytometry reactivity test (Example 7)
Assay type in all cases: binding
A-375 = conditions: Ep-CAM-negative cell line A-375
Description: (§1) The flow cytometry tests were conducted by incubating the constructs or control with 0.45×10^6 cells for an hour on ice. After washing, cell surface bound constructs were detected with a rabbit anti-bouganin (for FIG. 10A) or mouse anti-His tag (FIG. 10B) for an hour on ice. The cells were washed and incubated with FITC-conjugated sheep anti-rabbit IgG (FIG. 10A) and FITC-conjugated sheep anti-mouse (IgG) (FIG. 10B) for 30 minutes on ice. Subsequently the cells were washed, resuspended in PBS 5% FCS containing propidium iodide for assessment of antibody binding by flow cytometry.

NIH:OVCAR-3 = conditions: Ep-CAM positive cell line NIH:OVCAR-3
Description: as §1

CAL 27 = conditions: Ep-CAM positive cell line CAL 27
Description: as §1

B1: VB6-845-CL-de-bouganin: Fab anti-Ep-CAM de-bouganin construct, Bou156 linked at the C-terminus of the CL domain (protein)
chain 1: HHHHHHEVQLVQSGPGLVQPGGSVRISCAASGYTFTNYGMNWVKQAPGKGLEWMGWINTYTGESTYADSFKGRFTFSLDTSASAAYLQINSLRAEDTAVYYCARFAIKGDYWGQGTLLTVSSASTKGPSVFPLAPSSKSTSGGTAALGCLVKDYFPEPVTVSWNSGALTSGVHTFPAVLQSSGLYSLSSVVTVPSSSLGTQTYICNVNHKPSNTKVDKKVEPKSC
chain 2: DIQMTQSPSSLSASVGDRVTITCRSTKSLLHSNGITYLYWYQQKPGKAPKLLIYQMSNLASGVPSRFSSSGSGTDFTLTISSLQPEDFATYYCAQNLEIPRTFGQGTKVELKRTVAAPSVFIFPPSDEQLKSGTASVVCLLNNFYPREAKVQWKVDNALQSGNSQESVTEQDSKDSTYSLSSTLTLSKADYEKHKVYACEVTHQGLSSPVTKSFNRGECTRHRQPRGWEQLYNTVSFNLGEAYEYPTFIQDLRNELAKGTPVCQLPVTLQTIADDKRFVLVDITTTSKKTVKVAIDVTDVYVVGYQDKWDGKDRAVFLDKVPTVATSKLFPGVTNRVTLTFDGSYQKLVNAAKADRKALELGVNKLEFSIEAIHGKTINGQEAAKFFLIVIQMVSEAARFKYIETEVVDRGLYGSFKPNFKVLNLENNWGDISDAIHKSSPQCTTINPALQLISPSNDPWVVNKVSQISPDMGILKFKSSK
Question: With B1 as the molecule, how does the “shift in median fluorescence” value (A-375) read?
Answer: No shift in median fluorescence

Question: And the “shift in median fluorescence” value (NIH:OVCAR-3)?
Answer: marked shift in median fluorescence

Question: What about the “shift in median fluorescence” value (CAL 27) of the same molecule?
Answer: marked shift in median fluorescence
